# Measurements from paper PMC11574045, “A cofactor-induced repressive type of transcription factor condensation can be induced by synthetic peptides to suppress tumorigenesis” (The EMBO Journal, 2024).
# B1: ZDHHC18 (protein, UniProt Q9NUE0 1-388, looked up)
# Palmitoyltransferase ZDHHC18: MKDCEYQQISPGAAPLPASPGARRPGPAASPTPGPGPAPPAAPAPPRWSSSGSGSGSGSGSLGRRPRRKWEVFPGRNRFYCGGRLMLAGHGGVFALTLLLILTTTGLFFVFDCPYLARKLTLAIPIIAAILFFFVMSCLLQTSFTDPGILPRATVCEAAALEKQIDNTGSSTYRPPPRTREVLINGQMVKLKYCFTCKMFRPPRTSHCSVCDNCVERFDHHCPWVGNCVGRRNYRFFYAFILSLSFLTAFIFACVVTHLTLRAQGSNFLSTLKETPASVLELVICFFSIWSILGLSGFHTYLVASNLTTNEDIKGSWSSKRGGEASVNPYSHKSIITNCCAVLCGPLPPSLIDRRGFVQSDTVLPSPIRSDEPACRAKPDASMVGGHP
# B2: ZBTB44 (protein, UniProt Q8NCP5 1-570, looked up)
# Zinc finger and BTB …: MGVKTFTHSSSSHSQEMLGKLNMLRNDGHFCDITIRVQDKIFRAHKVVLAACSDFFRTKLVGQAEDENKNVLDLHHVTVTGFIPLLEYAYTATLSINTENIIDVLAAASYMQMFSVASTCSEFMKSSILWNTPNSQPEKGLDAGQENNSNCNFTSRDGSISPVSSECSVVERTIPVCRESRRKRKSYIVMSPESPVKCGTQTSSPQVLNSSASYSENRNQPVDSSLAFPWTFPFGIDRRIQPEKVKQAENTRTLELPGPSETGRRMADYVTCESTKTTLPLGTEEDVRVKVERLSDEEVHEEVSQPVSASQSSLSDQQTVPGSEQVQEDLLISPQSSSIGSVDEGVSEGLPTLQSTSSTNAPPDDDDRLENVQYPYQLYIAPSTSSTERPSPNGPDRPFQCPTCGVRFTRIQNLKQHMLIHSGIKPFQCDRCGKKFTRAYSLKMHRLKHEGKRCFRCQICSATFTSFGEYKHHMRVSRHIIRKPRIYECKTCGAMFTNSGNLIVHLRSLNHEASELANYFQSSDFLVPDYLNQEQEETLVQYDLGEHGFESNSSVQMPVISQYHSKGKEP
# B3: ZBTB43 (protein, UniProt O43298 1-467, looked up)
# Zinc finger and BTB …: MEPGTNSFRVEFPDFSSTILQKLNQQRQQGQLCDVSIVVQGHIFRAHKAVLAASSPYFCDQVLLKNSRRIVLPDVMNPRVFENILLSSYTGRLVMPAPEIVSYLTAASFLQMWHVVDKCTEVLEGNPTVLCQKLNHGSDHQSPSSSSYNGLVESFELGSGGHTDFPKAQELRDGENEEESTKDELSSQLTEHEYLPSNSSTEHDRLSTEMASQDGEEGASDSAEFHYTRPMYSKPSIMAHKRWIHVKPERLEQACEGMDVHATYDEHQVTESINTVQTEHTVQPSGVEEDFHIGEKKVEAEFDEQADESNYDEQVDFYGSSMEEFSGERSDGNLIGHRQEAALAAGYSENIEMVTGIKEEASHLGFSATDKLYPCQCGKSFTHKSQRDRHMSMHLGLRPYGCGVCGKKFKMKHHLVGHMKIHTGIKPYECNICAKRFMWRDSFHRHVTSCTKSYEAAKAEQNTTEAN
# B4: C1QBP (protein, UniProt Q07021 74-282, looked up)
# Complement component 1 Q …: LHTDGDKAFVDFLSDEIKEERKIQKHKTLPKMSGGWELELNGTEAKLVRKVAGEKITVTFNINNSIPPTFDGEEEPSQGQKVEEQEPELTSTPNFVVEVIKNDDGKKALVLDCHYPEDEVGQEDEAESDIFSIREVSFQSTGESEWKDTNYTLNTDSLDWALYDHLMDFLADRGVDNTFADELVELSTALEHQEYITFLEDLKSFVKSQ
# B5: ZBTB38 (protein, UniProt Q8NAP3 1-1195, looked up)
# Zinc finger and BTB …: MTVMSLSRDLKDDFHSDTVLSILNEQRIRGILCDVTIIVEDTKFKAHSNVLAASSLYFKNIFWSHTICISSHVLELDDLKAEVFTEILNYIYSSTVVVKRQETVTDLAAAGKKLGISFLEDLTDRNFSNSPGPYVFCITEKGVVKEEKNEKRHEEPAITNGPRITNAFSIIETENSNNMFSPLDLRASFKKVSDSMRTASLCLERTDVCHEAEPVRTLAEHSYAVSSVAEAYRSQPVREHDGSSPGNTGKENCEALAAKPKTCRKPKTFSIPQDSDSATENIPPPPVSNLEVNQERSPQPAAVLTRSKSPNNEGDVHFSREDENQSSDVPGPPAAEVPPLVYNCSCCSKAFDSSTLLSAHMQLHKPTQEPLVCKYCNKQFTTLNRLDRHEQICMRSSHMPIPGGNQRFLENYPTIGQNGGSFTGPEPLLSENRIGEFSSTGSTLPDTDHMVKFVNGQMLYSCVVCKRSYVTLSSLRRHANVHSWRRTYPCHYCNKVFALAEYRTRHEIWHTGERRYQCIFCLETFMTYYILKNHQKSFHAIDHRLSISKKTANGGLKPSVYPYKLYRLLPMKCKRAPYKSYRNSSYENARENSQMNESAPGTYVVQNPHSSELPTLNFQDTVNTLTNSPAIPLETSACQDIPTSANVQNAEGTKWGEEALKMDLDNNFYSTEVSVSSTENAVSSDLRAGDVPVLSLSNSSENAASVISYSGSAPSVIVHSSQFSSVIMHSNAIAAMTSSNHRAFSDPAVSQSLKDDSKPEPDKVGRFASRPKSIKEKKKTTSHTRGEIPEESNYVADPGGSLSKTTNIAEETSKIETYIAKPALPGTSTNSNVAPLCQITVKIGNEAIVKRHILGSKLFYKRGRRPKYQMQEEPLPQGNDPEPSGDSPLGLCQSECMEMSEVFDDASDQDSTDKPWRPYYNYKPKKKSRQLKKMRKVNWRKEHGNRSPSHKCKYPAELDCAVGKAPQDKPFEEEETKEMPKLQCELCDGDKAVGAGNQGRPHRHLTSRPYACELCAKQFQSPSTLKMHMRCHTGEKPYQCKTCGRCFSVQGNLQKHERIHLGLKEFVCQYCNKAFTLNETLKIHERIHTGEKRYHCQFCFQRFLYLSTKRNHEQRHIREHNGKGYACFQCPKICKTAAALGMHQKKHLFKSPSQQEKIGDVCHENSNPLENQHFIGSEDNDQKDNIQTGVENVVL
# B6: ZBTB5 (protein, UniProt O15062 1-677, looked up)
# Zinc finger and BTB …: MDFPGHFEQIFQQLNYQRLHGQLCDCVIVVGNRHFKAHRSVLAACSTHFRALFSVAEGDQTMNMIQLDSEVVTAEAFAALIDMMYTSTLMLGESNVMDVLLAASHLHLNSVVKACKHYLTTRTLPMSPPSERVQEQSARMQRSFMLQQLGLSIVSSALNSSQNGEEQPAPMSSSMRSNLDQRTPFPMRRLHKRKQSAEERARQRLRPSIDESAISDVTPENGPSGVHSREEFFSPDSLKIVDNPKADGMTDNQEDSAIMFDQSFGTQEDAQVPSQSDNSAGNMAQLSMASRATQVETSFDQEAAPEKSSFQCENPEVGLGEKEHMRVVVKSEPLSSPEPQDEVSDVTSQAEGSESVEVEGVVVSAEKIDLSPESSDRSFSDPQSSTDRVGDIHILEVTNNLEHKSTFSISNFLNKSRGNNFTANQNNDDNIPNTTSDCRLESEAPYLLSPEAGPAGGPSSAPGSHVENPFSEPADSHFVRPMQEVMGLPCVQTSGYQGGEQFGMDFSRSGLGLHSSFSRVMIGSPRGGASNFPYYRRIAPKMPVVTSVRSSQIPENSTSSQLMMNGATSSFENGHPSQPGPPQLTRASADVLSKCKKALSEHNVLVVEGARKYACKICCKTFLTLTDCKKHIRVHTGEKPYACLKCGKRFSQSSHLYKHSKTTCLRWQSSNLPSTLL
# B7: ZBTB4 (protein, UniProt Q9P1Z0 1-1013, looked up)
# Zinc finger and BTB …: MPPPAEVTDPSHAPAVLRQLNEQRLRGLFCDVTLIAGDTKFPAHRSVLAASSPFFREALLTSAPLPLPPATGGAAPNPATTTAASSSSSSSSSSSSSSSSASSSSSSSSSSPPPASPPASSPPRVLELPGVPAAAFSDVLNFIYSARLALPGGGGDGAAVAEIGALGRRLGISRLQGLGEGGDAWVPPTPAPMATSQPEEDSFGPGPRPAGEWEGDRAEAQAPDLQCSLPRRPLPCPQCGKSFIHPKRLQTHEAQCRRGASTRGSTGLGAGGAGPGGPAGVDASALPPPVGFRGGPEHVVKVVGGHVLYVCAACERSYVTLSSLKRHSNVHSWRRKYPCRYCEKVFALAEYRTKHEVWHTGERRYQCIFCWETFVTYYNLKTHQRAFHGISPGLLASEKTPNGGYKPKLNTLKLYRLLPMRAAKRPYKTYSQGAPEAPLSPTLNTPAPVAMPASPPPGPPPAPEPGPPPSVITFAHPAPSVIVHGGSSSGGGGSGTASTGGSQAASVITYTAPPRPPKKREYPPPPPEPAATPTSPATAVSPATAAGPAMATTTEEAKGRNPRAGRTLTYTAKPVGGIGGGGGPPTGAGRGPSQLQAPPPLCQITVRIGEEAIVKRRISETDLRPGELSGEEMEESEEDEEEEDEEEEEEDEEESKAGGEDQLWRPYYSYKPKRKAGAAGGASVGGSGLPRGRRPPRWRQKLERRSWEETPAAESPAGRARTERRHRCGDCAQTFTTLRKLRKHQEAHGGGSHSSRAGRRPSTRFTCPHCAKVCKTAAALSRHGQRHAAERPGGTPTPVIAYSKGSAGTRPGDVKEEAPQEMQVSSSSGEAGGGSTAAEEASETASLQDPIISGGEEPPVVASGGSYVYPPVQEFPLALIGGGREPGGGRGKSGSEGPVGAGEGDRMEGIGAAKVTFYPEPYPLVYGPQLLAAYPYNFSNLAALPVALNMVLPDEKGAGALPFLPGVFGYAVNPQAAPPAPPTPPPPTLPPPIPPKGEGERAGVERTQKGDVG
# B8: ZBTB48 (protein, UniProt P10074 1-688, looked up)
# Zinc finger and BTB …: MDGSFVQHSVRVLQELNKQREKGQYCDATLDVGGLVFKAHWSVLACCSHFFQSLYGDGSGGSVVLPAGFAEIFGLLLDFFYTGHLALTSGNRDQVLLAARELRVPEAVELCQSFKPKTSVGQAAGGQSGLGPPASQNVNSHVKEPAGLEEEEVSRTLGLVPRDQEPRGSHSPQRPQLHSPAQSEGPSSLCGKLKQALKPCPLEDKKPEDCKVPPRPLEAEGAQLQGGSNEWEVVVQVEDDGDGDYMSEPEAVLTRRKSNVIRKPCAAEPALSAGSLAAEPAENRKGTAVPVECPTCHKKFLSKYYLKVHNRKHTGEKPFECPKCGKCYFRKENLLEHEARNCMNRSEQVFTCSVCQETFRRRMELRVHMVSHTGEMPYKCSSCSQQFMQKKDLQSHMIKLHGAPKPHACPTCAKCFLSRTELQLHEAFKHRGEKLFVCEECGHRASSRNGLQMHIKAKHRNERPHVCEFCSHAFTQKANLNMHLRTHTGEKPFQCHLCGKTFRTQASLDKHNRTHTGERPFSCEFCEQRFTEKGPLLRHVASRHQEGRPHFCQICGKTFKAVEQLRVHVRRHKGVRKFECTECGYKFTRQAHLRRHMEIHDRVENYNPRQRKLRNLIIEDEKMVVVALQPPAELEVGSAEVIVESLAQGGLASQLPGQRLCAEESFTGPGVLEPSLIITAAVPEDCDT
# B9: ZBTB6 (protein, UniProt Q15916 1-424, looked up)
# Zinc finger and BTB …: MAAESDVLHFQFEQQGDVVLQKMNLLRQQNLFCDVSIYINDTEFQGHKVILAACSTFMRDQFLLTQSKHVRITILQSAEVGRKLLLSCYTGALEVKRKELLKYLTAASYLQMVHIVEKCTEALSKYLEIDLSMKNNNQHTDLCQSSDPDVKNEDENSDKDCEIIEISEDSPVNIDFHVKEEESNALQSTVESLTSERKEMKSPELSTVDIGFKDNEICILHVESISTAGVENGQFSQPCTSSKASMYFSETQHSLINSTVESRVAEVPGNQDQGLFCENTEGSYGTVSEIQNLEEGYSLRHQCPRCPRGFLHVENYLRHLKMHKLFLCLQCGKTFTQKKNLNRHIRGHMGIRPFQCTVCLKTFTAKSTLQDHLNIHSGDRPYKCHCCDMDFKHKSALKKHLTSVHGRSSGEKLSRPDLKRQSLL
# System: HEK293FT cells transfected with TF library
# Experiment: Screening of TF condensates based on fluorescent puncta
# Format: cell-based
# Conditions: Figure 1B numerical data; TF library screen, one value per transcriptional factor
# Outline: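 Each TF construct was introduced into HEK293FT cells using PEI at 4.8 μg/ml; glucose deprivation versus normal medium lasted 12 h. Automated confocal-style imaging of tagged TF staining, 50 fields per well, gave the puncta data.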
row,Molecule,Z score of condensed fraction
1,B1,-0.2463
2,B2,-0.608
3,B3,0.02104
4,B4,2.537
5,B5,-1.284
6,B6,-0.7904
7,B7,1.258
8,B8,0.7506
9,B9,-0.2886
